Results reported in US20100260668A1 (published 2010).
Several values for one entry are separate records, joined by “and”; a condition that tells them apart may be missing. Identical values can stand only once. One block for each binder: values may come before it.

Experiments:
[1] = target: T1, DLL4 (human, UniProt Q9NR61 27-685); assay: flow cytometry on cells carrying the target, 2 ug/mL; C-terminal VD
T1 construct: whole, on cells; also called human DLL4

[2] = target: T2, PlGF (UniProt P49763-2 21-149, limits assumed); assay: direct bind ELISA, antigen on plate; reference antibody
T2 construct: Bought antigen coated on the ELISA plate; also called Placental GF; placental growth factor
T2 sequence (looked up): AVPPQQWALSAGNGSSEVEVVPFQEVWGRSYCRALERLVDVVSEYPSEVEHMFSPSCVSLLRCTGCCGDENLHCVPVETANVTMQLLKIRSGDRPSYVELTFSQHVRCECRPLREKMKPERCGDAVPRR

[3] = target: T3, RON (MSP Receptor ECD-His tag) (UniProt Q04912 25-957, limits assumed); assay: Direct Bind ELISA, antigen on plate
T3 construct: extracellular domain; Bought reagent

[4] = target: T4, IGF1R ECD (UniProt P08069 31-935, limits assumed); assay: Direct Bind ELISA, antigen on plate
T4 construct: extracellular domain; Bought reagent

[5] = target: T5, RON (UniProt Q04912 25-1400, limits assumed); assay: flow cytometry on cells carrying the target, 2 ug/mL; C-terminal VD
T5 construct: whole, on cells; also called macrophage stimulating protein receptor tyrosine kinase; MSP receptor

[6] = target: T6, VEGF (VEGF 1-165 aa, R&D Systems 293-VE-010) (UniProt P15692 27-191); assay: Direct bind ELISA, VEGF coated on plate; VEGF domain N-term., HC long/LC long
T6 construct: bought reagent; also called vascular endothelial growth factor

[7] = target: T1, DLL4; assay: flow cytometry on 293G-human DLL4 cells; DLL4 VD N-terminal

T6 sequence (P15692 other isoform, or with tags, fused parts or gaps limits assumed): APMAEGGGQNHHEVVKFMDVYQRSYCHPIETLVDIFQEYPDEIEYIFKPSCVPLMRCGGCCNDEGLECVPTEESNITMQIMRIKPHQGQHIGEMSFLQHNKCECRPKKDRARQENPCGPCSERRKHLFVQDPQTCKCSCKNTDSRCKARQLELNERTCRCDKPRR

B2: AB047 (antibody, human IgG1, kappa, V domains shown)
VH: QVQLQQSGAELVKPGASVKISCKASGYTFTDYYINWVKLAPGQGLEWIGWIYPGSGNTKYNEKFKGKATLTIDTSSSTAYMQLSSLTSEDTAVYFCVRDSPFFDYWGQGTLLTVSS
VL: DIVLTQSPDSLAVSLGERVTMNCKSSQSLLNSGMRKSFLAWYQQKPGQSPKLLIYWASTRESGVPDRFTGSGSGTDFTLTISSVQAEDVAVYYCKQSYHLFTFGSGTKLEIKR
notes: also called AB047VH; AB047VL
EC50 [2]: 0.13 nM and 0.14 nM

B3: AB005 (anti-RON (seq. 1) parent antibody) (antibody, IgG1, V domains shown)
VH: EVQLVQSGGGLVKPGGSLRLSCAASGFTFSSYAMHWVRQAPGKGLEWVAVISYDGSNKYYADSVKGRFTISRDNSKNTLYLQMNSLRAEDTAVYYCARFSGWPNNYYYYGMDVWGQGTTVTVSS
VL: DVVMTQSPLSLPVTPGEPASISCRSSQSLLHSNGFNYVDWYLQKPGQSPHLLIYFGSYRASGVPDRFSGSGSGTDFTLKISRVEAEDVGVYYCMQALQTPPWTFGQGTKVEIRR
notes: HC vector V1 (wild-type hIgG1 constant), LC vector V2 (kappa constant); also called AB005VH; AB005VL
EC50 [3]: 0.26 nM and 0.21 nM

B4: AB011 (anti-IGF1R (seq. 1) parent antibody) (antibody, IgG1, V domains shown)
VH: EVQLLESGGGLVQPGGSLRLSCTASGFTFSSYAMNWVRQAPGKGLEWVSAISGSGGTTFYADSVKGRFTISRDNSRTTLYLQMNSLRAEDTAVYYCAKDLGWSDSYYYYYGMDVWGQGTTVTVSS
VL: DIQMTQFPSSLSASVGDRVTITCRASQGIRNDLGWYQQKPGKAPKRLIYAASRLHRGVPSRFSGSGSGTEFTLTISSLQPEDFATYYCLQHNSYPCSFGQGTKLEIKR
notes: HC vector V1 (wild-type hIgG1 constant), LC vector V2 (kappa constant); also called AB011VH; AB011VL
EC50 [4]: 0.28 nM

B6: DVD034 (bispecific antibody, human IgG1, kappa)
heavy: not shown
light: DIQMTQSPSSVSASVGDRVTITCRASQGISSWLAWYQQKPGKAPNLLIYEASSLQSGVPSRFGGSGSGTDFTLTISSLQPEDFATYYCQQANGFPWTFGQGTKVEIKRTVAAPDVVMTQSPLSLPVTPGEPASISCRSSQSLLHSNGFNYVDWYLQKPGQSPHLLIYFGSYRASGVPDRFSGSGSGTDFTLKISRVEAEDVGVYYCMQALQTPPWTFGQGTKVEIRRTVAAPSVFIFPPSDEQLKSGTASVVCLLNNFYPREAKVQWKVDNALQSGNSQESVTEQDSKDSTYSLSSTLTLSKADYEKHKVYACEVTHQGLSSPVTKSFNRGEC
notes: DVD-Ig; outer AB012 (HGF), inner AB005 (RON); also called HGF and RON DVD-Ig
FACS Geometric Mean C-terminal [5]: 0.39

B7: DVD496 (bispecific antibody, human IgG1, kappa)
heavy: not shown
light: DIQMTQSPSSLSASVGDRVTITCRASQDVSTAVAWYQQKPGKAPKLLIYSASFLYSGVPSRFSGSGSGTDFTLTISSLQPEDFATYYCQQSYTTPPTFGQGTKVEIKRTVAAPSVFIFPPDIQMTQSSSYLSVSLGGRVTITCKASDHINNWLAWYQQKPGNAPRLLISGATSLETGVPSRFSGSGSGKDYTLSITSLQTEDVATYYCQQYWSIPLTFGAGTKLELKRTVAAPSVFIFPPSDEQLKSGTASVVCLLNNFYPREAKVQWKVDNALQSGNSQESVTEQDSKDSTYSLSSTLTLSKADYEKHKVYACEVTHQGLSSPVTKSFNRGEC
notes: DVD-Ig; N-term; AB070 (VEGF), C-term; AB072 (DLL4); HC linker long, LC linker long; also called DVD-Ig DVD496; DVD496H/DVD496L
EC50 [6]: 108 nM

Second part, the binder after the results:

FACS Geometric Mean C-terminal [1]: 68.4
B1: DVD043 (bispecific antibody, human IgG1, kappa)
heavy: not shown
light: DIQMTQSPSSLSASVGDRVTITCSASQDISNYLNWYQQKPGKAPKVLIYFTSSLHSGVPSRFSGSGSGTDFTLTISSLQPEDFATYYCQQYSTVPWTFGQGTKVEIKRTVAAPDIQMTQSPSSLSASVGDRVTITCRASQDVSTAVAWYQQKPGKAPKLLIYSASFLYSGVPSRFSGSGSGTDFTLTISSLQPEDFATTYYCQQSYTGTVTFGQGTKVEIKRTVAAPSVFIFPPSDEQLKSGTASVVCLLNNFYPREAKVQWKVDNALQSGNSQESVTEQDSKDSTYSLSSTLTLSKADYEKHKVYACEVTHQGLSSPVTKSFNRGEC
notes: DVD-Ig; also called VEGF and DLL4 DVD-Ig

FACS Geometric Mean C-terminal [5]: 0.51
B5: DVD047 (bispecific antibody, human IgG1, kappa)
heavy: not shown
light: DIQMTQSPSSLSASVGDRVTITCSASQDISNYLNWYQQKPGKAPKVLIYFTSSLHSGVPSRFSGSGSGTDFTLTISSLQPEDFATYYCQQYSTVPWTFGQGTKVEIKRTVAAPDVVMTQSPLSLPVTPGEPASISCRSSQSLLHSNGFNYVDWYLQKPGQSPHLLIYFGSYRASGVPDRFSGSGSGTDFTLKISRVEAEDVGVYYCMQALQTPPWTFGQGTKVEIRRTVAAPSVFIFPPSDEQLKSGTASVVCLLNNFYPREAKVQWKVDNALQSGNSQESVTEQDSKDSTYSLSSTLTLSKADYEKHKVYACEVTHQGLSSPVTKSFNRGEC
notes: DVD-Ig; also called VEGF and RON DVD-Ig

EC50 [7]: 1.13 nM
B8: DVD471 (bispecific antibody, human IgG1, kappa, L234A L235A)
heavy: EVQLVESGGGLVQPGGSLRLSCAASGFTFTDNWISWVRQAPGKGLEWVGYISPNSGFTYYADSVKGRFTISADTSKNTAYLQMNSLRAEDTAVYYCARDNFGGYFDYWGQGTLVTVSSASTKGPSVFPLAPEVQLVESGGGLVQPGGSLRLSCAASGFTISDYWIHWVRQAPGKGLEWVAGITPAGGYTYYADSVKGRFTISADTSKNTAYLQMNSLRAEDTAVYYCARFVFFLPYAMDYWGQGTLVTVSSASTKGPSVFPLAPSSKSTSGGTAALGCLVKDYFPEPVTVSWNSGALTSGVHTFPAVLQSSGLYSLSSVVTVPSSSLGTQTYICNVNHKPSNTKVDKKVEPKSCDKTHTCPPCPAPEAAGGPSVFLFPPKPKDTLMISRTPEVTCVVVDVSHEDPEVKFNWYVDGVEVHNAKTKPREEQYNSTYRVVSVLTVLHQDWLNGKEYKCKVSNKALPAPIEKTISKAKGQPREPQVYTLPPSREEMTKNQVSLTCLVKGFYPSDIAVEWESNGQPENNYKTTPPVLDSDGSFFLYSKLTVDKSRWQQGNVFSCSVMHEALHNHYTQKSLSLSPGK
light: DIQMTQSPSSLSASVGDRVTITCRASQDVSTAVAWYQQKPGKAPKLLIYSASFLYSGVPSRFSGSGSGTDFTLTISSLQPEDFATTYYCQQSYTGTVTFGQGTKVEIKRTVAAPSVFIFPPDIQMTQSPSSLSASVGDRVTITCRASQDVSTAVAWYQQKPGKAPKLLIYSASFLYSGVPSRFSGSGSGTDFTLTISSLQPEDFATYYCQQSYTTPPTFGQGTKVEIKRTVAAPSVFIFPPSDEQLKSGTASVVCLLNNFYPREAKVQWKVDNALQSGNSQESVTEQDSKDSTYSLSSTLTLSKADYEKHKVYACEVTHQGLSSPVTKSFNRGEC
notes: DVD-Ig; also called DLL4 and VEGF DVD-Ig, HC linker long, LC linker long
